Molecular target: Komagataella phaffii Ero1 (Komagataella phaffii) (UniProt F2QNN1)
Chain of UniProt F2QNN1 (F2QNN1 entry or part of it): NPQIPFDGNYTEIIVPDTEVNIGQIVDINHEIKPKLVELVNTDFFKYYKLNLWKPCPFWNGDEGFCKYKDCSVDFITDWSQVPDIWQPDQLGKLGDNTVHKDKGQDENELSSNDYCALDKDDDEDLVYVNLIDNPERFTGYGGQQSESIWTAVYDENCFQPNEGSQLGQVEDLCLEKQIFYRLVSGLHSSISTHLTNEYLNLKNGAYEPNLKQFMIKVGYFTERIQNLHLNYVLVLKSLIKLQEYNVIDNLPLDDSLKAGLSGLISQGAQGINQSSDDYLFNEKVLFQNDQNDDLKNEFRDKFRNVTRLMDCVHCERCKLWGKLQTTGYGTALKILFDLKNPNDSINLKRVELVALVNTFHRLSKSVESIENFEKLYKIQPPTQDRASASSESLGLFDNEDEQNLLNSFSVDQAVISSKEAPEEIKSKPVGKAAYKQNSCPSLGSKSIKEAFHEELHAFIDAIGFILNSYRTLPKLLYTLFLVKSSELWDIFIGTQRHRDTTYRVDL

- K M PDI for Erp41 as substrate of 1 μM Ero1–Pdi1 complex, oxygen consumption assay (titration of Erp41, 10 mM GSH): 7.07 µM
- kcat of oxygen consumption, 1 μM Ero1–Pdi1 complex plus 10 μM Erp41: 1.95 s⁻¹
Substance: Komagataella phaffii Erp41, full length, purified (enzyme)
